Where no end group is shown, it is not given here.
Assays:
[1] = target: T1, PSMA Fab (biotinylated (site not stated)); test: phage ELISA on captured PSMA Fab pre-incubated with PSMA antigen as competitor, anti-M13-HRP detection
T1 construct: also called Anti-PSMA Fab; 006 PSMA Fab

[2] = target: T1, PSMA Fab; test: phage ELISA: clonal phage on biotinylated PSMA Fab captured on neutravidin, anti-M13-HRP detection, blocking buffer alone
Method: (§1) Clonal phage were harvested as crude supernatants and screened via standard ELISAs. […] Prior to the addition of clonal phage. wells were incubated with blocking buffer and PSMA antigen or blocking buffer alone. Without washing or aspirating, clonal phage supernatants were then added to the wells and incubated for a short time. Wells were then washed followed by detection of bound phage using a horse radish conjugated anti-M13 antibody.

[3] = target: T2, PSMA Fab (006 PSMA Fab) (biotinylated for capture on neutravidin plates (site not stated)); test: phage ELISA as above, wells pre-incubated with PSMA antigen as competitor
T2 construct: also called Anti-PSMA Fab; anti-PSMA Fab

[4] = target: T2, PSMA Fab (006 PSMA Fab); test: phage ELISA: clonal phage supernatant on biotinylated PSMA Fab captured on neutravidin plate, anti-M13-HRP detection
Method: as §1

[5] = target: T3, PSMA Fab; test: clonal phage ELISA; biotinylated PSMA Fab on neutravidin plate; anti-M13 HRP detection
T3 construct: also called Anti-PSMA Fab; 006 PSMA Fab
Method: as §1

[6] = target: T3, PSMA Fab; test: clonal phage ELISA; biotinylated PSMA Fab on neutravidin plate, wells pre-incubated with PSMA antigen as competitor; anti-M13 HRP detection;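 also: crude clonal phage supernatants added to antigen-treated wells without a wash, incubated briefly, then bound phage read out via horse radish–conjugated anti-M13 antibody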
Method: as §1

[7] = target: T4, PSMA Fab; test: clonal phage ELISA on biotinylated PSMA Fab captured on neutravidin, anti-M13 HRP detection, blocking buffer alone
T4 construct: In the panning ELISA the PSMA Fab was biotinylated and captured on neutravidin coated plates; also called Anti-PSMA Fab; 006 PSMA Fab
Method: as §1

[8] = target: T4, PSMA Fab; test: clonal phage ELISA on biotinylated PSMA Fab captured on neutravidin, anti-M13 HRP detection, wells pre-incubated with saturating PSMA antigen as competitor
Method: as §1

Row | Binder | Phage binding ELISA signal, Anti-PSMA Fab with PSMA antigen [1] | Phage binding ELISA signal, Anti-PSMA Fab [2] | Phage binding ELISA signal, Anti-PSMA Fab in presence of PSMA [3] | Phage binding ELISA signal, Anti-PSMA Fab [4] | also measured
1 | VDAYCKPAWMCLGF (Peptide-180 library clone, tested as clonal phage supernatant with the peptide fused to pIII) [Phage-3288] | 0.0998 | 1.89 | – | – | –
2 | PARMCVPAWMCSVL (Peptide-180 library clone, tested as clonal M13 phage displaying the peptide fused to pIII) [Phage-3277] | – | – | 0.0732 | 1.9 | –
3 | ETLMCIPNWMCDGF (Peptide-180 library clone, tested as clonal phage supernatant with the peptide fused to pIII) [Phage-3293] | 0.0837 | 1.89 | – | – | –
4 | GGVLCQPAWMCIGF (Peptide-180 library clone, tested as clonal M13 phage displaying the peptide fused to pIII) [Phage-3271] | – | – | 0.0804 | 1.9 | –
5 | YEMRCVPDWMCVGL (Peptide-180 library clone, tested as clonal phage supernatant with the peptide fused to pIII) [Phage-3292] | 0.0906 | 1.89 | – | – | –
6 | MEHWCVPAWMCSGF (Peptide-180 library clone, tested as clonal phage supernatant with the peptide fused to pIII) [Phage-3282] | 0.264 | 1.89 | – | – | –
7 | FDHLCIPVWMCKGF (Peptide-180 library clone, tested as clonal phage supernatant with the peptide fused to pIII) [Phage-3283] | 0.0828 | 1.89 | – | – | –
8 | EIMLCKPEWMCYGF [Phage-3265] | – | – | – | – | Phage binding ELISA signal, Anti-PSMA Fab [5]: 1.91; Phage binding ELISA signal, Anti-PSMA Fab in presence of PSMA [6]: 0.0998
9 | VERACVPAWMCTGF [Phage-3309] | – | – | – | – | Phage binding ELISA signal, Anti-PSMA Fab [7]: 1.87; Phage binding ELISA signal, Anti-PSMA Fab with PSMA antigen [8]: 0.0832
10 | QEFRCVPEWMCIGL [Phage-3316] | – | – | – | – | Phage binding ELISA signal, Anti-PSMA Fab [7]: 1.86; Phage binding ELISA signal, Anti-PSMA Fab with PSMA antigen [8]: 0.0577
11 | MVVRCEPEWMCIGF (Peptide-180 library clone, tested as clonal M13 phage displaying the peptide fused to pIII) [Phage-3274] | – | – | 0.0649 | 1.9 | –
12 | ESLLCKPKWMCDWL (Peptide-180 library clone, tested as clonal phage supernatant with the peptide fused to pIII) [Phage-3287] | 0.0996 | 1.89 | – | – | –
13 | VERMCKPEWMCFGF (Peptide-180 library clone, tested as clonal phage supernatant with the peptide fused to pIII of the bacteriophage) [Phage-3281] | 0.102 | 1.9 | – | – | –
14 | VEVKCVPEWMCTGF (Peptide-180 library clone, tested as clonal M13 phage displaying the peptide fused to pIII) [Phage-3268] | – | – | 0.0868 | 1.91 | –
15 | EENFCVPKWMCEGF [Phage-3264] | – | – | – | – | Phage binding ELISA signal, Anti-PSMA Fab [5]: 1.91; Phage binding ELISA signal, Anti-PSMA Fab in presence of PSMA [6]: 0.126
16 | INAWCIPAWMCEGF (Peptide-180 library clone, tested as clonal M13 phage displaying the peptide fused to pIII) [Phage-3272] | – | – | 0.137 | 1.9 | –
17 | LPPMCIPQWMCMHF (Peptide-180 library clone, tested as clonal M13 phage displaying the peptide fused to pIII) [Phage-3278] | – | – | 0.0592 | 1.9 | –
18 | LDPMCVPSWMCWGF (Peptide-180 library clone, tested as clonal M13 phage displaying the peptide fused to pIII) [Phage-3270] | – | – | 0.0992 | 1.9 | –
19 | TDVMCVPQWMCDGF (Peptide-180 library clone, tested as clonal phage supernatant with the peptide fused to pIII) [Phage-3294] | 0.106 | 1.89 | – | – | –
20 | WNHVCIPTWMCTGM (Peptide-180 library clone, tested as clonal M13 phage displaying the peptide fused to pIII) [Phage-3280] | – | – | 0.0817 | 1.9 | –

Row | Binder | Phage binding ELISA signal, Anti-PSMA Fab with PSMA antigen [1] | Phage binding ELISA signal, Anti-PSMA Fab [2] | Phage binding ELISA signal, Anti-PSMA Fab in presence of PSMA [3] | Phage binding ELISA signal, Anti-PSMA Fab [4] | also measured
21 | IEKLCKPQWMCEGF [Phage-3310] | – | – | – | – | Phage binding ELISA signal, Anti-PSMA Fab [7]: 1.87; Phage binding ELISA signal, Anti-PSMA Fab with PSMA antigen [8]: 0.129
22 | NWKVCEPTWMCEGF [Phage-3308] | – | – | – | – | Phage binding ELISA signal, Anti-PSMA Fab [7]: 1.87; Phage binding ELISA signal, Anti-PSMA Fab with PSMA antigen [8]: 0.0575
23 | LLEMCKPHWMCVGF [Phage-3314] | – | – | – | – | Phage binding ELISA signal, Anti-PSMA Fab [7]: 1.86; Phage binding ELISA signal, Anti-PSMA Fab with PSMA antigen [8]: 0.085
24 | PTLRCEPLWMCAGF (Peptide-180 library clone, tested as clonal phage supernatant with the peptide fused to pIII) [Phage-3286] | 0.0911 | 1.89 | – | – | –
25 | PIPRCQPLWMCHGF (Peptide-180 library clone, tested as clonal phage supernatant with the peptide fused to pIII) [Phage-3291] | 0.085 | 1.89 | – | – | –
26 | ISPRCEPLWMCTGL (Peptide-180 library clone, tested as clonal M13 phage displaying the peptide fused to pIII) [Phage-3269] | – | – | 0.0836 | 1.91 | –
27 | EDYVCRPTWMCVGF (Peptide-180 library clone, tested as clonal phage supernatant with the peptide fused to pIII) [Phage-3289] | 0.0755 | 1.89 | – | – | –
28 | ELQRCIPQWMCVGL (Peptide-180 library clone, tested as clonal phage supernatant with the peptide fused to pIII) [Phage-3284] | 0.0731 | 1.89 | – | – | –
29 | LPYMCTPIWMCIGF (Peptide-180 library clone, tested as clonal M13 phage displaying the peptide fused to pIII) [Phage-3267] | – | – | 0.143 | 1.91 | –
30 | GEPWCIPSWMCQGF (Peptide-180 library clone, tested as clonal M13 phage displaying the peptide fused to pIII) [Phage-3279] | – | – | 0.091 | 1.9 | –
31 | EFQMCVPEWMCTGL (Peptide-180 library clone, tested as clonal M13 phage displaying the peptide fused to pIII) [Phage-3276] | – | – | 0.0838 | 1.9 | –
32 | AEHVCRPAWMCTVF [Phage-3313] | – | – | – | – | Phage binding ELISA signal, Anti-PSMA Fab [7]: 1.86; Phage binding ELISA signal, Anti-PSMA Fab with PSMA antigen [8]: 0.0585
33 | MDVLCRPEWMCTGF (Peptide-180 library clone, tested as clonal phage supernatant with the peptide fused to pIII) [Phage-3290] | 0.0971 | 1.89 | – | – | –
34 | DLRWCIPEWMCIGI [Phage-3312] | – | – | – | – | Phage binding ELISA signal, Anti-PSMA Fab [7]: 1.86; Phage binding ELISA signal, Anti-PSMA Fab with PSMA antigen [8]: 0.0809
35 | EYQVCKPTWMCTGF [Phage-3266] | – | – | – | – | Phage binding ELISA signal, Anti-PSMA Fab [5]: 1.91; Phage binding ELISA signal, Anti-PSMA Fab in presence of PSMA [6]: 0.0904
36 | LEFRCVPEWMCVGF [Phage-3311] | – | – | – | – | Phage binding ELISA signal, Anti-PSMA Fab [7]: 1.87; Phage binding ELISA signal, Anti-PSMA Fab with PSMA antigen [8]: 0.111
37 | FDTYCKPAWMCEGF (Peptide-180 library clone, tested as clonal phage supernatant with the peptide fused to pIII) [Phage-3285] | 0.0818 | 1.89 | – | – | –
38 | VEIACKPQWMCLGF [Phage-3315] | – | – | – | – | Phage binding ELISA signal, Anti-PSMA Fab [7]: 1.86; Phage binding ELISA signal, Anti-PSMA Fab with PSMA antigen [8]: 0.0766
39 | FDRICKPAWMCIEF (Peptide-180 library clone, tested as clonal M13 phage displaying the peptide fused to pIII) [Phage-3275] | – | – | 0.0573 | 1.9 | –
40 | SMGLCKPPWMCAGF (not fully specified; cysteine pairing not given here, Peptide-180 library clone, tested as clonal M13 phage displaying the peptide fused to pIII) [Phage-3273] | – | – | 0.0756 | 1.9 | –

From patent US20260242478A1 (published 2026)
